Measurements: US20210388110A1 (published 2021)
Where a chain is given by its changes, count along the chain named. One block for each binder: values may come before it.

Target: T1, soluble human CD3ε chain (human, UniProt P07766 23-126, limits assumed)
T1 construct: the text says soluble human CD3ε chain; also called human CD3 epsilon chain
Assay: SPR (Biacore)

T1 sequence (P07766 23-126 limits assumed): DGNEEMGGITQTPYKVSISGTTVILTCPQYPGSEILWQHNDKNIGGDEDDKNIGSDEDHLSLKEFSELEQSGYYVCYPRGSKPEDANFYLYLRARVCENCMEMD

Kd: 35.7 nM
B2: TR01H040-E22Hh/none-Hi-Kn010G3/TR01L011-k0 (antibody, human IgG1, kappa, L234A L235A, N297A)
heavy: QVQLVESGGGLVQPGRSLRLSCAASGFTFSNAWMHWVRQAPGKGLEWVAQIKDKSQNYATYYAESVKGRFTISRADSKNSIYLQMNSLKTEDTAVYYCRYVHYSASYGVDAWGQGTTVTVSSASTKGPSVFPLAPSSKSTSGGTAALGCLVKDYFPEPVTVSWNSGALTSGVHTFPAVLQSSGLYSLSSVVTVPSSSLGTQTYICNVNHKPSNTKVDKKVEPKSCDKTHTCPPCPAPEAAGGPSVFLFPPKPKDTLMISRTPEVTCVVVDVSHEDPEVKFNWYVDGVEVHNAKTKPREEQYASTYRVVSVLTVLHQDWLNGKEYKCKVSNKALPAPIEKTISKAKGQPREPQVYTLPPSRCELTKNQVSLSCAVKGFYPSDIAVEWESNGQPENNYKTTPPVLDSDGSFFLVSKLTVDKSRWQQGNVFSCSVMHEALHNHYTQKSLSLSPDYKDDDDK
chain: EPKSSDKTHTCPPCPAPELLGGPSVFLFPPKPKDTLMISRTPEVTCVVVDVSHEDPEVKFNWYVDGVEVHNAKTKPREEQYNSTYRVVSVLTVLHQDWLNGKEYKCKVSNKALPAPIEKTISKAKGQPREPQVCTLPPSRDELTKNQVSLWCLVKGFYPSDIAVEWESNGQPENNYKTTPPVLDSDGSFFLYSKLTVDKSRWQQGNVFSCSVMHEALHNRYTQKSLSLSP
light: DIVMTQSPLSLPVTPGEPASISCQASESLVHSNRNTYLHWYQQKPGQAPRLLIYKVSNRFRGVPDRFSGSGSGTDFTLKISRVEAEDVGVYYCGQGTQVPYTFGQGTKVEIERTVAAPSVFIFPPSDEQLKSGTASVVCLLNNFYPREAKVQWKVDNALQSGNSQESVTEQDSKDSTYSLSSTLTLSKADYEKHKVYACEVTHQGLSSPVTKSFNRGEC
notes: single-arm

Kd: 39.5 nM
B3: TR01H040-E22Hh/none-Hi-Kn010G3/TR01L015-k0 (antibody, human IgG1, kappa, L234A L235A, N297A)
heavy: B2 heavy
chain: B2 chain
light: B2 light with Q24R, A25S, E27Q, L29P, Q42L, A48S, R50Q, R61S, V109L, E112K
notes: single-arm

Kd: 35.2 nM
B6: TR01H044-E22Hh/none-Hi-Kn010G3/L0000-k0 (antibody, human IgG1, kappa, L234A L235A, N297A)
heavy: B2 heavy with A23S, A111I
chain: B2 chain
light: B2 light with Q24R, A25S, E27Q, R61S, V109L, E112K
notes: single-arm

Kd: 3.2 nM
B8: TR01H040-E22Hh/none-Hi-Kn010G3/TR01L019-k0 (antibody, human IgG1, kappa, L234A L235A, N297A)
heavy: B2 heavy
chain: B2 chain
light: B2 light with L29P, Q42L, A48S, R50Q, R61S, G94Y, V109L, E112K
notes: single-arm

Kd: 31.6 nM
B11: TR01H041-E22Hh/none-Hi-Kn010G3/L0000-k0 (antibody, human IgG1, kappa, L234A L235A, N297A)
heavy: B2 heavy with A111Y
chain: B2 chain
light: B2 light with Q24R, A25S, E27Q, R61S, V109L, E112K
notes: single-arm

Kd: 42.2 nM
B12: TR01H040-E22Hh/none-Hi-Kn010G3/TR01L012-k0 (antibody, human IgG1, kappa, L234A L235A, N297A)
heavy: B2 heavy
chain: B2 chain
light: B2 light with Q24R, A25S, E27Q, Q42L, A48S, R50Q
notes: single-arm

Kd: 41.5 nM
B18: TR01H040-E22Hh/none-Hi-Kn010G3/TR01L013-k0 (antibody, human IgG1, kappa, L234A L235A, N297A)
heavy: B2 heavy
chain: B2 chain
light: B2 light with Q42L, A48S, R50Q
notes: single-arm

Kd: 52.2 nM
B19: TR01H045-E22Hh/none-Hi-Kn010G3/L0000-k0 (antibody, human IgG1, kappa, L234A L235A, N297A)
heavy: B2 heavy with A23S
chain: B2 chain
light: B2 light with Q24R, A25S, E27Q, R61S, V109L, E112K
notes: single-arm

Kd: 45.1 nM
B21: TR01H040-E22Hh/none-Hi-Kn010G3/TR01L018-k0 (antibody, human IgG1, kappa, L234A L235A, N297A)
heavy: B2 heavy
chain: B2 chain
light: B2 light with L29P, Q42L, A48S, R50Q, R61S, V109L, E112K
notes: single-arm

Kd: 2.52 nM
B24: TR01H040-E22Hh/none-Hi-Kn010G3/TR01L016-k0 (antibody, human IgG1, kappa, L234A L235A, N297A)
heavy: B2 heavy
chain: B2 chain
light: DIVMTQSPLSLPVTPGEPASISCRSSQSPVHSNRNTYLHWYLQKPGQSPQLLIYKVSNRFSGVPDRFSGSGSGTDFTLKISRVEAEDVGVYYCYQGTQVPYTFGQGTKLEIKRTVAAPSVFIFPPSDEQLKSGTASVVCLLNNFYPREAKVQWKVDNALQSGNSQESVTEQDSKDSTYSLSSTLTLSKADYEKHKVYACEVTHQGLSSPVTKSFNRGEC
notes: single-arm

Kd: 32.8 nM
B26: TR01H040-E22Hh/none-Hi-Kn010G3/TR01L010-k0 (antibody, human IgG1, kappa, L234A L235A, N297A)
heavy: B2 heavy
chain: B2 chain
light: B2 light with Q24R, A25S, E27Q
notes: single-arm

Kd: 44.8 nM
B27: TR01H042-E22Hh/none-Hi-Kn010G3/L0000-k0 (antibody, human IgG1, kappa, L234A L235A, N297A)
heavy: B2 heavy with L11V, R16G
chain: B2 chain
light: B24 light with P29L, L42Q, S48A, Q50R, Y94G
notes: single-arm

Kd: 29.3 nM
B28: TR01H040-E22Hh/none-Hi-Kn010G3/TR01L008-k0 (antibody, human IgG1, kappa, L234A L235A, N297A)
heavy: B2 heavy
chain: B2 chain
light: B2 light with V109L, E112K
notes: single-arm

Kd: 35.6 nM
B32: TR01H040-E22Hh/none-Hi-Kn010G3/TR01L009-k0 (antibody, human IgG1, kappa, L234A L235A, N297A)
heavy: B2 heavy
chain: B2 chain
light: B24 light with P29L, S61R, Y94G
notes: single-arm

Kd: 15.2 nM
B36: TR01H043-E22Hh/none-Hi-Kn010G3/L0000-k0 (antibody, human IgG1, kappa, L234A L235A, N297A)
heavy: B2 heavy with A23S, Q56N, A111I
chain: B2 chain
light: B24 light with P29L, L42Q, S48A, Q50R, Y94G
notes: single-arm

Further lines, the binder ahead of its results:

B1: TR01H040-E22Hh/none-Hi-Kn010G3/L0219-k0 (antibody, human IgG1, kappa, L234A L235A, N297A)
heavy: B2 heavy
chain: B2 chain
light: B2 light with Q24R, A25S, E27Q, L38I, V109L, E112K
notes: single-arm
Kd: 39.4 nM

B4: TR01H040-E22Hh/none-Hi-Kn010G3/L0234-k0 (antibody, human IgG1, kappa, L234A L235A, N297A)
heavy: B2 heavy
chain: B2 chain
light: B24 light with S28E, L42Q, S48A, Q50R, S61R, Y94G
notes: single-arm
Kd: 24 nM

B5: TR01H040-E22Hh/none-Hi-Kn010G3/L0240-k0 (antibody, human IgG1, kappa, L234A L235A, N297A)
heavy: B2 heavy
chain: B2 chain
light: B24 light with Q27E, L42Q, S48A, Q50R
notes: single-arm
Kd: 2.17 nM

B7: TR01H040-E22Hh/none-Hi-Kn010G3/L0220-k0 (antibody, human IgG1, kappa, L234A L235A, N297A)
heavy: B2 heavy
chain: B2 chain
light: B24 light with S28P, P29L, L42Q, S48A, Q50R, S61R
notes: single-arm
Kd: 9.15 nM

B9: TR01H040-E22Hh/none-Hi-Kn010G3/L0239-k0 (antibody, human IgG1, kappa, L234A L235A, N297A)
heavy: B2 heavy
chain: B2 chain
light: B2 light with Q24R, A25S, L29P, V109L, E112K
notes: single-arm
Kd: 23.1 nM

B10: TR01H040-E22Hh/none-Hi-Kn010G3/L0233-k0 (antibody, human IgG1, kappa, L234A L235A, N297A)
heavy: B2 heavy
chain: B2 chain
light: B24 light with S28E, P29L, L42Q, S48A, Q50R, Y94G
notes: single-arm
Kd: 40.1 nM

B13: TR01H040-E22Hh/none-Hi-Kn010G3/L0235-k0 (antibody, human IgG1, kappa, L234A L235A, N297A)
heavy: B2 heavy
chain: B2 chain
light: B24 light with S28E, L42Q, S48A, Q50R
notes: single-arm
Kd: 2.81 nM

B14: TR01H040-E22Hh/none-Hi-Kn010G3/L0250-k0 (antibody, human IgG1, kappa, L234A L235A, N297A)
heavy: B2 heavy
chain: B2 chain
light: B24 light with S25P, L38I, H39Q, L42Q, S48A, Q50R, Y94I
notes: single-arm
Kd: 21.5 nM

B15: TR01H040-E22Hh/none-Hi-Kn010G3/L0237-k0 (antibody, human IgG1, kappa, L234A L235A, N297A)
heavy: B2 heavy
chain: B2 chain
light: B24 light with S28E, L38I, L42Q, S48A, Q50R
notes: single-arm
Kd: 10.2 nM

B16: TR01H040-E22Hh/none-Hi-Kn010G3/L0223-k0 (antibody, human IgG1, kappa, L234A L235A, N297A)
heavy: B2 heavy
chain: B2 chain
light: B24 light with L38I, L42Q, S48A, Q50R, F60L
notes: single-arm
Kd: 8.15 nM

B17: TR01H040-E22Hh/none-Hi-Kn010G3/L0236-k0 (antibody, human IgG1, kappa, L234A L235A, N297A)
heavy: B2 heavy
chain: B2 chain
light: B24 light with S28E, L42Q, S48A, Q50R, S61W
notes: single-arm
Kd: 5.64 nM

B20: TR01H040-E22Hh/none-Hi-Kn010G3/L0242-k0 (antibody, human IgG1, kappa, L234A L235A, N297A)
heavy: B2 heavy
chain: B2 chain
light: B24 light with Q27E, L38I, L42Q, S48A, Q50R
notes: single-arm
Kd: 3.58 nM

B22: TR01H040-E22Hh/none-Hi-Kn010G3/L0262-k0 (antibody, human IgG1, kappa, L234A L235A, N297A)
heavy: B2 heavy
chain: B2 chain
light: B24 light with S28P, L42Q, S48A, Q50R, Y94A
notes: single-arm
Kd: 18.1 nM

B23: TR01H040-E22Hh/none-Hi-Kn010G3/L0243-k0 (antibody, human IgG1, kappa, L234A L235A, N297A)
heavy: B2 heavy
chain: B2 chain
light: B2 light with Q24R, A25S, S28P, L29P, V109L, E112K
notes: single-arm
Kd: 24.6 nM

B25: TR01H040-E22Hh/none-Hi-Kn010G3/L0232-k0 (antibody, human IgG1, kappa, L234A L235A, N297A)
heavy: B2 heavy
chain: B2 chain
light: B2 light with Q24R, A25S, R61S, V109L, E112K
notes: single-arm
Kd: 38.6 nM

B29: TR01H040-E22Hh/none-Hi-Kn010G3/L0224-k0 (antibody, human IgG1, kappa, L234A L235A, N297A)
heavy: B2 heavy
chain: B2 chain
light: B24 light with L38I, L42Q, S48A, Q50R, S61P
notes: single-arm
Kd: 5.06 nM

B30: TR01H040-E22Hh/none-Hi-Kn010G3/L0241-k0 (antibody, human IgG1, kappa, L234A L235A, N297A)
heavy: B2 heavy
chain: B2 chain
light: B24 light with Q27E, L42Q, S48A, Q50R, S61W
notes: single-arm
Kd: 3.48 nM

B31: TR01H040-E22Hh/none-Hi-Kn010G3/L0228-k0 (antibody, human IgG1, kappa, L234A L235A, N297A)
heavy: B2 heavy
chain: B2 chain
light: B24 light with L38I, L42Q, S48A, Q50R, Y94V
notes: single-arm
Kd: 16 nM

B33: TR01H040-E22Hh/none-Hi-Kn010G3/L0238-k0 (antibody, human IgG1, kappa, L234A L235A, N297A)
heavy: B2 heavy
chain: B2 chain
light: B24 light with Q27E, S28P, L42Q, S48A, Q50R
notes: single-arm
Kd: 2.91 nM

B34: TR01H040-E22Hh/none-Hi-Kn010G3/L0231-k0 (antibody, human IgG1, kappa, L234A L235A, N297A)
heavy: B2 heavy
chain: B2 chain
light: B24 light with L38I, L42Q, S48A, Q50R, V99W
notes: single-arm
Kd: 7.75 nM

B35: TR01H040-E22Hh/none-Hi-Kn010G3/L0222-k0 (antibody, human IgG1, kappa, L234A L235A, N297A)
heavy: B2 heavy
chain: B2 chain
light: B24 light with L38I, H39Q, L42Q, S48A, Q50R
notes: single-arm
Kd: 46.5 nM
